This is an account of results in the nanobody polyreactivity screen of Harvey et al. (2022).

This data set can be described thus: yeast display, Sf9 membrane polyspecificity reagent, FACS + sequencing; frameworks hold sequencing errors. In short, it runs like this: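 In a synthetic yeast display library (Saccharomyces cerevisiae BJ5465), nanobody expression was induced with galactose for 36–48 hours. FACS gates were set low and high (top ~1%) using anti-HA fluorescence for expression and streptavidin fluorescence for binding of the Sf9 membrane reagent. Each polyreactivity label is drawn from the gate of origin.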
Turning to “QVQLVESGGGLVQAGGSLRLSCAASGRIFKKNAMGWYRQAPGKERELVASITRGASTNYADSVKGRFTISRDNAKNTVYLQMNSLKPEDTAVYYCAAVITLNGDGPPSDYWGQGTQVTVSS”, the “polyreactivity (PSR sort gate)” value is listed as “low polyreactivity”.

“QVQLVESGGGLVQAGGSLRLSCAASGRIFKKYAMGWYRQAPGKERELVATISSGGSTYYADSVKGRFTISRDNSKNTVYLQMNSLKPEDTAVYYCARREYVRRDYFVTTYDYWGQGTQVTVSS”: the “polyreactivity (PSR sort gate)” value is “low polyreactivity”.

As to “QVQLVESGGGLVQAGGSLRLSCAASGRIFKLNAMGWYRQAPGKERELVAAITRGGRTYYADSVKGRFTISRDNAKNTVYLQMNSLKPEDTAVYYCNKKTYQQTYKYDYWGQGTQVTVSS”, the “polyreactivity (PSR sort gate)” value is reported as “high polyreactivity”.

Regarding “QVQLVESGGGLVQAGGSLRLSCAASGRIFKLYAMGWYRQEPGKVRELVASITWGGGSTNYADSVKGRFTISRDNAKNTVYLQMNSLKQEDTAVYYCAAVYSKFAVFWEYDYWGQGTQVTVSS”, the “polyreactivity (PSR sort gate)” value is reported as “low polyreactivity”.

For “QVQLVESGGGLVQAGGSLRLSCAASGRIFKNYAMGWYRQAPGKERELVAAISWSGGRTYYADSVKGRFTISRDNAKNTVYLQMNSLKPEDTAVYYCAASIRTGYRYGYWGQGTQVTVSS”, the “polyreactivity (PSR sort gate)” value is listed as “high polyreactivity”.

With “QVQLVESGGGLVQAGGSLRLSCAASGRIFKQYTMGWYRQAPGKERELVAAITSSGAGTFYADSVKGRFTISRDNAKNTVYLQMNSLKPEDTAVYYCAASWSRRDRGFDYWGQGTQVTVSS”, the “polyreactivity (PSR sort gate)” value was “high polyreactivity”.

Regarding “QVQLVESGGGLVQAGGSLRLSCAASGRIFKRNAMGWYRQAPGKERELVAAINWSGGSTYYADSVKGRFTISRDNAKNTVYLQMNSLKPEDTAVYYCAALRVQGDYDYWGQGTQVTVSS”, the “polyreactivity (PSR sort gate)” value was “high polyreactivity”.

As to “QVQLVESGGGLVQAGGSLRLSCAASGRIFKRYAMGWYRQAPGKERELVAAITRSGGSMYYADSVKGRFTISRDNAKNTVYLQMNSLKPEDTAVYYCNKVYGPHPERAVYYEGDYWGQGTQVTVSS”, the “polyreactivity (PSR sort gate)” value was “high polyreactivity”.

As to “QVQLVESGGGLVQAGGSLRLSCAASGRIFKRYDMGWYRQAPGKERELVAAITGTGGSTYYADSVKGRFTISRDNAKNTVYLQMNSLKPEDTAVYYCAARLYNTYSGFAFGYWGQGTQVTVSS”, the “polyreactivity (PSR sort gate)” value is “high polyreactivity”.

In the case of “QVQLVESGGGLVQAGGSLRLSCAASGRIFKRYDMGWYRQAPWKERELVAAITGTGGSTYYADSVKGRFTISRDNAKNTVYLQMNSLKPEDTAVYYCAARLYNTYSGFAFGYWGQGTQVTVSS”, the “polyreactivity (PSR sort gate)” value was “high polyreactivity”.

Consider “QVQLVESGGGLVQAGGSLRLSCAASGRIFKSYAMGWYRQAPGKERELVASISYTGGSTYYADSVKGRFTISRDNAKNTVYLQMNSLKPEDTAVYYCAAKRVRSAGSYGYWGQGTQVTVSS”, for which the “polyreactivity (PSR sort gate)” value is reported as “low polyreactivity”.

Turning to “QVQLVESGGGLVQAGGSLRLSCAASGRIFKVYAMGWYRQAPGKERELVASIRWNTGSTYYADSVKGRFTISRDNAKNTVYLQMNSLKPEDTAVYYCNARGYYQGRYGYWGQGTQVTVSS”, the “polyreactivity (PSR sort gate)” value was “high polyreactivity”.

Take “QVQLVESGGGLVQAGGSLRLSCAASGRIFKVYAMGWYRQAPGKERELVAVINGGGSTNYADSVKGRFTISRDNAKNTVYLQMNSLKPEDTAVYYCATEGYGHGGETDGGVYSDLGYWGQGTQVTVSS”: the “polyreactivity (PSR sort gate)” value is listed as “low polyreactivity”.

For “QVQLVESGGGLVQAGGSLRLSCAASGRIFKWYAMGWYRQAPGKERELVAVITVSGGSTTYADSVKGRFTISLDNAKNTVYLQMNSLKQEDTAVYYCNAVYYRSRFGTSIRYDYWGQGTQVTVSS”, the “polyreactivity (PSR sort gate)” value is on record as “high polyreactivity”.

“QVQLVESGGGLVQAGGSLRLSCAASGRIFKYYAMGWYRQAPGKERELVAAITRGGSTNYADSVKGRFTISRDNASNTVYLQMTSLKPEDTAVYYCAVVTVRNHRMDYWGQGTQVTVSS”: the “polyreactivity (PSR sort gate)” value is given as “low polyreactivity”.

“QVQLVESGGGLVQAGGSLRLSCAASGRIFKYYAMGWYRQAPGKERELVAAITSGGSTYYADSVKGRFTISRDNAKNTVYLQMNSLKPEDTAVYYCNADGYLSYAFDYWGQGTQVTVSS”: the “polyreactivity (PSR sort gate)” value is recorded as “low polyreactivity”.

“QVQLVESGGGLVQAGGSLRLSCAASGRIFKYYAMGWYRQAPGKERELVARISSSGGSTYYADSVKGRFTISRDNAKNTVYLQMNSLKPEDTAVYYCNARYYSTKYFLGDYWGQGTQVTVSS”: the “polyreactivity (PSR sort gate)” value is given as “high polyreactivity”.

Turning to “QVQLVESGGGLVQAGGSLRLSCAASGRIFKYYAMGWYRQAPGTERELVAAITSGGSTYYADSVKGRFTISRDNAKNTVYLQMNSLKPEDTAVYYCNADGYLSYAFDYWGQGTQVTVSS”, the “polyreactivity (PSR sort gate)” value is “low polyreactivity”.

Consider “QVQLVESGGGLVQAGGSLRLSCAASGRIFKYYGMGWYRQAPGKERELVAAITRGDSTNYADSVKGRFTISRDNAKNTVYLQMNSLKPEDTAVYYCNVGTRRGYDYWGQGTQVTVSS”, for which the “polyreactivity (PSR sort gate)” value was “high polyreactivity”.

As to “QVQLVESGGGLVQAGGSLRLSCAASGRIFKYYTMGWYRQAPGKERELVARISSSGGSTYYADSVKGRFTISRDNAKNTVYLQMNSLKPEDTAVYYCNTRAAYHQTTHKYERDYWGQGSQVTVSS”, the “polyreactivity (PSR sort gate)” value is “low polyreactivity”.

Consider “QVQLVESGGGLVQAGGSLRLSCAASGRIFLFYAMGWYRQAPGKERELVAAISSTDDTYYADSVKGRFTISRDNAKNTVYLQMNSLKPEDTAVYYSAAYSIISQSEMYYRGQGTQVTVSS”, for which the “polyreactivity (PSR sort gate)” value is recorded as “low polyreactivity”.

For “QVQLVESGGGLVQAGGSLRLSCAASGRIFLFYAMGWYRQAPGKERELVAGIRSGGSTNYADSVKGRFTISRDNAKNTVYLQMNSLKPEDTAVYYCAAASYFVYPRLEGYWGQGTQVTVSS”, the “polyreactivity (PSR sort gate)” value is reported as “low polyreactivity”.

As to “QVQLVESGGGLVQAGGSLRLSCAASGRIFLGNAMGWYRQAPGKERELVAAIDASGGSTYYADSVKGRFTISRDNAKNTVYLQMNSLKPEDTAVYYCAADRGFLRSFAPGNMDYWGQGTQVTVSS”, the “polyreactivity (PSR sort gate)” value is “low polyreactivity”.

On to “QVQLVESGGGLVQAGGSLRLSCAASGRIFLGNAMGWYRQAPWKESELVAAITNGGGSTSYADSVKGRFTISRDNAKNTVYLQMNSLKPEDTAVYYCARGYKKSVQRFEYRGQGTQVTVSS”, for which the “polyreactivity (PSR sort gate)” value was “high polyreactivity”.

For “QVQLVESGGGLVQAGGSLRLSCAASGRIFLGNTMGCYRQAPGKERELVAAISKRGGSTYYVDSVKGRFTISRDNAKNTVYLQMNSLKPEDTAVYYCNAGPLYSGVYSGYYWGQGTQVTVSS”, the “polyreactivity (PSR sort gate)” value is recorded as “high polyreactivity”.

For “QVQLVESGGGLVQAGGSLRLSCAASGRIFLGNVMGWYRQAPGKERELVAAISWSGGSTYADSVKGRFTISRDNAKNTVYLQMNSLKPEDTAVYYCNAELGSYDKDYDYWGQGTQVTVSS”, the “polyreactivity (PSR sort gate)” value is “low polyreactivity”.

Regarding “QVQLVESGGGLVQAGGSLRLSCAASGRIFLGYAMGRYRQAPGKERELVAAITFSGGSTYYADSVKGRFTISRDNAKNTVYLQMNSLKPEDTAVYYCAAPRLRRTYPRNRYDYWGQGTQVTVSS”, the “polyreactivity (PSR sort gate)” value is “low polyreactivity”.

With “QVQLVESGGGLVQAGGSLRLSCAASGRIFLGYAMGWYRQPPGKVSELVAAINSVASTNYADSVKGRFTISRDNAKNTVYLQMNSLKPEDTAVYYCAAVYFLVQSDLPAYDYWGQGTLVTVSS”, the “polyreactivity (PSR sort gate)” value is “low polyreactivity”.

For “QVQLVESGGGLVQAGGSLRLSCAASGRIFLKYAMGWYRHAPGKERELVAAISLSTGSTYYADSVKGRFTISRDNAKNTVYLQMNSLKAEDTAVYYCAATRKYRYVYWGQGTQGTVSS”, the “polyreactivity (PSR sort gate)” value was “high polyreactivity”.

For “QVQLVESGGGLVQAGGSLRLSCAASGRIFLKYTMGWYRQAPGKERELVAAISRGGSTYYADSVKGRFTISRDNAKNTVYLQMNSLKPEDTAVYYCAARRSRPTYYSTGVNYWGQGTQVTVSS”, the “polyreactivity (PSR sort gate)” value is on record as “high polyreactivity”.

As for “QVQLVESGGGLVQAGGSLRLSCAASGRIFLPYAMGWYRQAPGKERELVAAIDTNGGSTYYADSVKGRFTISRDNAKNTVYLQMNSLKPEDSAVYYCAAEVYDYTYVVTFLYDYWGQGTQVTVSS”, the “polyreactivity (PSR sort gate)” value is on record as “high polyreactivity”.

For the sequence “QVQLVESGGGLVQAGGSLRLSCAASGRIFLPYAMGWYRQAPGKERELVAAITQSGVITSYADSVKGRFTISRDNAKNTVYLQMNSLKPVDTAVYYCATVRTVIVFRFPYSYGYWGQGTQVTVSS”, the “polyreactivity (PSR sort gate)” value was “high polyreactivity”.

Regarding “QVQLVESGGGLVQAGGSLRLSCAASGRIFLRNAMGWYRQAPGKERELVAAISRRGATTYYADSVKGRFTISRDNAKNTVYLQMNSLKPEDTAVYYCAKRVWETDYDYWGQGTQVTVSS”, the “polyreactivity (PSR sort gate)” value is on record as “high polyreactivity”.

For “QVQLVESGGGLVQAGGSLRLSCAASGRIFLRNAMGWYRQAPGKERELVAGINSGGSTYYADSVKGRFTISRDNAKNTVYLQMNSLKPEDTAVYYCAADDGNFLSEDRDSYYGYDYWGQGTQVTVSS”, the “polyreactivity (PSR sort gate)” value is “low polyreactivity”.

As for “QVQLVESGGGLVQAGGSLRLSCAASGRIFLSYAMGWYRQAPGKERELVAGITWNGGSTYYADSVKGRFTISRDNAKNTVYLQMNSLKPEDTAVFYCAADYFGFSYAGYNYWGQGTQVTVSS”, the “polyreactivity (PSR sort gate)” value is listed as “low polyreactivity”.

“QVQLVESGGGLVQAGGSLRLSCAASGRIFLSYAMGWYRQAPGKERELVAGITWNGGSTYYADSVKGRFTISRDNAKNTVYLQMNSLKPEDTAVYYCAATRFSYVFPYRYDYWGQGTQVTVSS”: the “polyreactivity (PSR sort gate)” value is listed as “low polyreactivity”.

As to “QVQLVESGGGLVQAGGSLRLSCAASGRIFLTYAMGWYRQAPGKERELVAAITRRGGRTNYADSVKGRFTISRDNAKNTVYLQMNSLKPEDTAVYYCAKSPWPSHLDYDYWGQGTQVTVSS”, the “polyreactivity (PSR sort gate)” value is given as “low polyreactivity”.

Turning to “QVQLVESGGGLVQAGGSLRLSCAASGRIFLTYVMGWYRQAPGKERELVAAITSSGGTTYYADSVKGRFTISRDNAKNTVYLQMKSLKPEDTAVYYCNAGSSYQYGPRYNYWGQGTQVTVSS”, the “polyreactivity (PSR sort gate)” value is given as “low polyreactivity”.

For the sequence “QVQLVESGGGLVQAGGSLRLSCAASGRIFLVYAMGRYRQAPGKERELVAAITSDGRTYYADSVKGRFTISRDNAKNTVYLQMNSLKPEDTAVYYCAADRYGAGYLYWPYDYWGQGTQVTVSS”, the “polyreactivity (PSR sort gate)” value was “low polyreactivity”.

Regarding “QVQLVESGGGLVQAGGSLRLSCAASGRIFLYNAMGSYRQAPGKVRELVASISSGVTTNYADSVKGRFTISRDNAKKTVYLQMNSLKPEDTAVYYCAADGQYSVIVKYDSWGQGTQVTVSS”, the “polyreactivity (PSR sort gate)” value is on record as “low polyreactivity”.

As to “QVQLVESGGGLVQAGGSLRLSCAASGRIFLYNAMGWYRQAPGKERELVAAITASGGTTYYADSVKGRFTISRDNAKNTVYLQMNSLKPEDNAVYYCNAYSYSGERYYWGQGTQVTVSS”, the “polyreactivity (PSR sort gate)” value was “high polyreactivity”.
